Measurements published in patent US20170088624A1 (Janssen / Centocor, published 2017).
Changes are numbered by the printed parent chain.

T1: Macaca fascicularis (cyno) CD40 (cCD40) on cells (Macaca fascicularis (cynomolgus), UniProt P25942 21-277 (human entry))
T1 construct: CD40 on cyno mature DCs
T1 chain: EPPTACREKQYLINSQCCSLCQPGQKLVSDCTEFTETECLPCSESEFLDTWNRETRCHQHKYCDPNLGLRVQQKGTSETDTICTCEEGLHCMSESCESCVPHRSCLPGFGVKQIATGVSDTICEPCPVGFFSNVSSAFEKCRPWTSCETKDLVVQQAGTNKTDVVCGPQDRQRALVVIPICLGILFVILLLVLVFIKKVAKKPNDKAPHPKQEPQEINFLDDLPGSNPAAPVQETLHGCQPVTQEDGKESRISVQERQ

T2: cyno CD40 (SPR analyte) (Macaca fascicularis (cynomolgus), UniProt P25942 21-193 (human entry), limits assumed)
T2 construct: also called cCD40-ECD
T2 chain: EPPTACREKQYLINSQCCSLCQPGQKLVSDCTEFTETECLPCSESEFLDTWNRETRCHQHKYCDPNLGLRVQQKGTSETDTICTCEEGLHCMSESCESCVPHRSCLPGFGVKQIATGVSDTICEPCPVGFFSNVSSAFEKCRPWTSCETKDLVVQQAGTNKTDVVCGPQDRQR

B1: C40M55 (antibody, human IgG1, kappa, V domains shown)
VH: QVQLVQSGAEVKKPGSSVKVSCKASGGTFSSYAISWVRQAPGQGLEWMGGIIPIFGTANYAQKFQGRVTITADESTSTAYMELSSLRSEDTAVYYCARDGYRRYGIGRYGFDYWGQGTLVTVSS
VL: not shown
notes: Full-length IgG1/kappa; from phage display
B2: C40M121 (antibody, human IgG1, lambda, V domains shown)
VH: QLQLQESGPGLVKPSETLSLTCTVSGGSISSSSYYWGWIRQPPGKGLEWIGNIYYRGDTYYSPSLKSRVTISVDTSKNQFSLKLSSVTAADTAVYYCAKGFRFDYWGQGTLVTVSS
VL: QSALTQPPSASGSPGQSVTISCTGTSSDVGGYNYVSWYQQHPGKAPKLMIYEVSKRPSGVPDRFSGSKSGNTASLTVSGLQAEDEADYYCSSYAGSNNLVFGGGTKLTVLG
B3: C40M9 (antibody, human IgG1, lambda, V domains shown)
VH: B2 VH with T17I, S85N
VL: B2 VL

Tests used:
human CD40 (SPR analyte) [1] = biological target: T3, human CD40 (SPR analyte) (human, UniProt P25942 21-193); experiment: SPR ProteOn XPR36, mAb captured, CD40 as analyte, 25 C; upper end of the range of n = 2; upper end of the range of the n = 2 replicates
T3 construct: also called huCD40-ECD
Procedure: (§1) Affinity measurements were performed using Surface Plasmon Resonance (SPR) using a ProteOn XPR36 system (BioRad). […] Approximately 5000 RU (response units) of mAbs were immobilized. The kinetic experiments were performed at 25° C. in running buffer (DPBS+0.01% P20+100 μg/ml BSA). To perform kinetic experiments, 200 RU of mAbs were captured followed by injections of analytes (human or cyno CD40) at 5 concentrations (in a 4-fold serial dilution). The association phase was monitored for 3 minutes at 50 μL/min, then followed by 15 minutes of buffer flow (dissociation phase). The chip surface was regenerated with two 18 second pulses of 100 mM H₃PO₄ (Sigma, Cat#7961) at 100 μL/min.
(§2) The collected data were processed using ProteOn Manager software. First, the data was corrected for background using inter-spots. Then, double reference subtraction of the data was performed by using the buffer injection for analyte injections. The kinetic analysis of the data was performed using a Langmuir 1:1 binding model. The result for each mAb was reported in the format of Ka (On-rate), Kd (Off-rate) and KD (equilibrium dissociation constant).
(§3) The parameters reported in this table were obtained from a 1:1 Langmuir binding model for all samples. Affinity, KD=kd/ka.

[2] = biological target: T4, Full length human CD40 (huCD40) on cells (human, UniProt P25942 21-277); experiment: flow cytometry, Raji cells
T4 construct: CD40 on human mature DCs, human B cells, Raji cells and HEK-Blue CD40L cells (stably expressing human CD40); also called TNFRSF5

[3] = biological target: T1, Macaca fascicularis (cyno) CD40 (cCD40) …; experiment: flow cytometry, cyno mature DCs
Procedure: (§4) Human monocytes were isolated from either frozen/fresh PBMC using CD14 negative isolation kit per manufacturer's protocol (MACS Miltenyi). Cyno monocytes were isolated from fresh PBMC using CD14 positive isolation kit per manufacturer's protocol (MACS Miltenyi). To generate DCs, monocytes were cultured for 5 days in complete media RPMI (Invitrogen) in the presence of 100 ng/ml human GM-CSF and human IL-4 (Peprotech) and media was replenished every 2 days. On day 5, DCs were stimulated with 100 ng/ml LPS (Sigma) for 24 hours. Cells were then stained with each of the tested CD40 antibody at different concentration in flow cytometry buffer (PBS+1% FBS; BD Bioscience) in 100 μl volume for 30 minutes on ice followed with two washes with flow buffer. Cells were then stained for additional 30 minutes on ice with APC-conjugated anti human IgG (Jackson ImmunoResearch) at the recommended dilution 1:100 and washed twice with flow buffer. Cells were analyzed for percent positive and Mean Fluorescence Intensity (MFI) to determine the antibody binding using Fortessa (BD Bioscience).
(§5) The experiments were conducted using assays described above. 20 antibodies were characterized further based on their binding to human DCs, cyno DCs, Raji cells and HEK-Blue™ CD40L cells.

human CD40 (SPR analyte) [4] = biological target: T3, human CD40 (SPR analyte); experiment: SPR ProteOn XPR36, mAb captured, CD40 as analyte, 25 C; lower end of the range of n = 2; lower end of the range of the n = 2 replicates
Procedure: as §1, §2, §3

[5] = biological target: T4, Full length human CD40 (huCD40) on cells; experiment: cell-based or functional assay
[6] = biological target: T4, Full length human CD40 (huCD40) on cells; experiment: flow cytometry, HEK-Blue CD40L cells
human CD40 (SPR analyte) [7] = biological target: T3, human CD40 (SPR analyte); experiment: SPR ProteOn XPR36, mAb captured, CD40 as analyte, 25 C; average of n = 2; did not fit well to 1:1 model
Procedure: as §1, §2, §3

[8] = biological target: T4, Full length human CD40 (huCD40) on cells; experiment: cell-based or functional assay; remark: listed apart in the source
cyno CD40 (SPR analyte) [9] = biological target: T2, cyno CD40 (SPR analyte); experiment: SPR ProteOn XPR36, mAb captured, cyno CD40 as analyte, 25 C; did not fit well to 1:1 model
Procedure: as §1, §2, §3

[10] = biological target: T4, Full length human CD40 (huCD40) on cells; experiment: flow cytometry, human mature DCs
Procedure: as §4, §5

human CD40 (SPR analyte) [11] = biological target: T3, human CD40 (SPR analyte); experiment: SPR ProteOn XPR36, mAb captured, CD40 as analyte, 25 C; upper end of the range of n = 2
Procedure: as §1, §2, §3

human CD40 (SPR analyte) [12] = biological target: T3, human CD40 (SPR analyte); experiment: SPR ProteOn XPR36, mAb captured, CD40 as analyte, 25 C; lower end of the range of n = 2
Procedure: as §1, §2, §3

[13] = biological target: T4, Full length human CD40 (huCD40) on cells; experiment: flow cytometry, human B cells; separate experiment
[14] = biological target: T4, Full length human CD40 (huCD40) on cells; experiment: flow cytometry, human DCs; separate experiment
[15] = biological target: T4, Full length human CD40 (huCD40) on cells; experiment: flow cytometry, HEK-Blue CD40L cells; separate experiment
[16] = biological target: T4, Full length human CD40 (huCD40) on cells; experiment: cell-based or functional assay; remark: listed apart in the source
human CD40 (SPR analyte) [17] = biological target: T3, human CD40 (SPR analyte); experiment: SPR ProteOn XPR36, mAb captured by anti-human IgG Fc, CD40 as analyte, 25 C; mean of n = 5 (SD 1.51E-09); did not fit well to 1:1 model
Procedure: as §1, §2, §3

[18] = biological target: T4, Full length human CD40 (huCD40) on cells; experiment: flow cytometry, HEK-Blue CD40L cells; remark: listed apart in the source
Target sequence in this assay (P25942 21-277): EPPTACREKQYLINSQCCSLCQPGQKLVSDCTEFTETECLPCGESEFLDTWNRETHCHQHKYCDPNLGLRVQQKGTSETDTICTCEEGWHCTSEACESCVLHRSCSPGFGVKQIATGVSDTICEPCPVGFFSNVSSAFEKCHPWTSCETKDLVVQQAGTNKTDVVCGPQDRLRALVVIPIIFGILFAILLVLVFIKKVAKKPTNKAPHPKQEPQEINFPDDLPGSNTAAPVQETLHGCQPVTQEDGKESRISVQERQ

[19] = biological target: T4, Full length human CD40 (huCD40) on cells; experiment: flow cytometry, human DCs
Target sequence in this assay (P25942 21-277): as above

human CD40 (SPR analyte) [20] = biological target: T3, human CD40 (SPR analyte); experiment: SPR ProteOn XPR36, mAb captured by anti-human IgG Fc, CD40 as analyte, 25 C; mean of n = 5 (SD 0.97E-03); did not fit well to 1:1 model
Procedure: as §1, §2, §3

cyno CD40 (SPR analyte) [21] = biological target: T2, cyno CD40 (SPR analyte); experiment: SPR ProteOn XPR36, mAb captured by anti-human IgG Fc, cyno CD40 as analyte, 25 C; mean of n = 3 (SD 0.07E-03)
Procedure: as §1, §2

[22] = biological target: T4, Full length human CD40 (huCD40) on cells; experiment: flow cytometry, human B cells
Target sequence in this assay (P25942 21-277): as above

human CD40 (SPR analyte) [23] = biological target: T3, human CD40 (SPR analyte); experiment: SPR ProteOn XPR36, mAb captured by anti-human IgG Fc, CD40 as analyte, 25 C; mean of n = 5 (SD 1.83E+05); did not fit well to 1:1 model
Procedure: as §1, §2, §3

cyno CD40 (SPR analyte) [24] = biological target: T2, cyno CD40 (SPR analyte); experiment: SPR ProteOn XPR36, mAb captured by anti-human IgG Fc, cyno CD40 as analyte, 25 C; mean of n = 3 (SD 0.24E-09)
Procedure: as §1, §2, §3

cyno CD40 (SPR analyte) [25] = biological target: T2, cyno CD40 (SPR analyte); experiment: SPR ProteOn XPR36, mAb captured by anti-human IgG Fc, cyno CD40 as analyte, 25 C; mean of n = 3 (SD 1.02E+05)
Procedure: as §1, §2

Binder	EC50 [2] [ng/mL]	EC50 [3] [ng/mL]	DC EC50, CD80 surface expression, with cross-linker [5] [ng/mL]	DC EC50, CD83 surface expression, with cross-linker [5] [ng/mL]	DC EC50, CD86 surface expression, with cross-linker [5] [ng/mL]	DC EC50, HLA-DR surface expression, with cross-linker [5] [ng/mL]	EC50 [6] [ng/mL]	B cells EC50, CD23 surface expression, with cross-linker [8] [ng/mL]	B cells EC50, CD80 surface expression, with cross-linker [8] [ng/mL]	B cells EC50, CD83 surface expression, with cross-linker [8] [ng/mL]	B cells EC50, CD86 surface expression, with cross-linker [8] [ng/mL]	B cells EC50, HLA-DR surface expression, with cross-linker [8] [ng/mL]	EC50 [10] [ng/mL]	EC50 [13] [ng/mL]	EC50 [14] [ng/mL]	EC50 [15] [ng/mL]	EC50, Human B cells (CD83), separate experiment [16] [ng/mL]	EC50, Human DC (HLA-DR), separate experiment [16] [ng/mL]	EC50, agonistic activity on HEK-Blue™ CD40L cells (NF-κB/SEAP), separate experiment [16] [ng/mL]	also measured
B1	46.1	21.8	61.6	103	198	81.1	63.1	61.6	1.43	1.25	0.646	0.437	102	–	–	–	–	–	–	koff (human CD40 (SPR analyte) [1]): 0.00217 s⁻¹; kon (human CD40 (SPR analyte) [1]): 1.02e+06 M⁻¹ s⁻¹; koff (human CD40 (SPR analyte) [4]): 0.00188 s⁻¹; kon (human CD40 (SPR analyte) [4]): 868000 M⁻¹ s⁻¹; Kd (human CD40 (SPR analyte) [7]): 2.15 nM; koff (human CD40 (SPR analyte) [7]): 0.00203 s⁻¹; kon (human CD40 (SPR analyte) [7]): 944000 M⁻¹ s⁻¹; Kd (cyno CD40 (SPR analyte) [9]): 2.59 nM; koff (cyno CD40 (SPR analyte) [9]): 0.00215 s⁻¹; kon (cyno CD40 (SPR analyte) [9]): 831000 M⁻¹ s⁻¹; Kd (human CD40 (SPR analyte) [11]): 2.17 nM; Kd (human CD40 (SPR analyte) [12]): 2.12 nM
B2	–	–	–	–	–	–	–	–	–	–	–	–	–	22.8	57.2	464	0.334	18.5	6.33	–
B3	57.1	45.1	27.7	39.8	103	79.7	94.2	2.87	13.1	0.00668	0.0109	0.012	123	19.1	46.2	615	0.145	16.7	6.21	Kd (human CD40 (SPR analyte) [17]): 4.09 nM; EC50 [18]: 143 ng/mL; EC50 [19]: 152 ng/mL; koff (human CD40 (SPR analyte) [20]): 0.00285 s⁻¹; EC50, Human B cells (CD83) [16]: 0.766 ng/mL; EC50, Human DC (HLA-DR) [16]: 118 ng/mL; EC50, agonistic activity on HEK-Blue™ CD40L cells (NF-κB/SEAP) [16]: 13.8 ng/mL; koff (cyno CD40 (SPR analyte) [21]): 0.00126 s⁻¹; EC50 [22]: 60.9 ng/mL; kon (human CD40 (SPR analyte) [23]): 727000 M⁻¹ s⁻¹; Kd (cyno CD40 (SPR analyte) [24]): 1.42 nM; kon (cyno CD40 (SPR analyte) [25]): 901000 M⁻¹ s⁻¹
